For assay [1], the target named is T1, hemagglutinin of A/Vietnam/1203/04 (H5N1) on virus (influenza A virus H5N1, …, UniProt Q80A26 6-557). Kind of assay: inferred from HI and virus neutralization assays.
In assay [2] the target is T1, hemagglutinin of A/Vietnam/1203/04 …. The assay can be described thus: HI assay.

B1: VN04-3 (antibody, V domains shown)
VH: QVQLQESGPDLVKPGASVMISCKASGYSFTYYYMHWVKQSHGKTLEWIGRIYPYNGDTNYNRRFKDKAILTVDESSSTAYMELRSLTSEDSAVYFCARDANYEGDWYFDVWGQGTTVTVSS
VL: DIQMTQSPSSFSVSLGDRVTITCKASEDIYNRVAWYQQKPGNAPRLLMSDATSLGAGVPSRFSGSGSGKDHTLSITSLQTEDVATYYCQQYWNTRTFGGGTKLEIKR
For B1, the binding result in assay [1] is given as “binds”.

B2: VN04-3-huG1 (antibody, V domains shown)
VH: QVQLQESGPDLVKPGASVMISCKASGYSFTYYYMHWVKQSHGKTLEWIGRIYPYNGDTNYNRRFKDKAILTVDESSSTAYMELRSLTSEDSAVYFCARDANYEGDWYFDVWGQGTTVTVSS
VL: DIQMTQSPSSFSVSLGDRVTITCKASEDIYNRVAWYQQKPGNAPRLLMSDATSLGAGVPSRFSGSGSGKDHTLSITSLQTEDVATYYCQQYWNTRTFGGGTKLEIKR
In the case of B2, in assay [2], the binding result is reported as “binds”.

The values are drawn from patent publication US20100150941A1 (DSO NATIONAL LABORATORIES, published 2010).
